Laboratory results from patent US20060003407A1 (Biogen, published 2006).

What was measured:
[1] = molecular target: T1, TACI on TACI+ expressing IM9 cell line (UniProt O14836 1-293, limits assumed); assay: FACS on TACI+IM9 cells, 1 to 50 ng/mL ligand
T1 construct: whole, on cells; also called TACI+IM9 cells; TACI+ in IM9 cells
T1 sequence (looked up): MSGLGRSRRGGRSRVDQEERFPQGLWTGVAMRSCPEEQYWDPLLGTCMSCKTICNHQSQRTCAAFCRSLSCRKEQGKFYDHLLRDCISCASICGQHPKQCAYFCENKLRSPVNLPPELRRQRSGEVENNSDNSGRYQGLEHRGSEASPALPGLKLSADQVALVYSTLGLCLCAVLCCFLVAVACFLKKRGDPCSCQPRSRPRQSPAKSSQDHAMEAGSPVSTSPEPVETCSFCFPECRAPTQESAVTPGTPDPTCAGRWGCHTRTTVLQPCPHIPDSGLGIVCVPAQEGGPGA

[2] = molecular target: T1, TACI on TACI+ expressing IM9 cell line; assay: FACS on TACI+IM9 cells, 1 to 50 ng/mL ligand; the filing calls a major component of this binding nonspecific

B1: FLAG-tagged truncated human APRIL ligand polypeptide (amino acids 115-250 of SEQ ID NO: 6) (ligand, not shown: small tags and cut ends)
chain: HSVLHLVPINATSKDDSDVTEVMWQPALRRGRGLQAQGYGVRIQDAGVYLLYSQVLFQDVTFTMGQVVSREGQGRQETLFRCIRSMPSHPDRAYNSCYSAGVFHLHQGDILSVIIPRARAKLNLSPHGTFLGFVKL
notes: Expressed in 293T cells; Tested both purified (anti-FLAG M1, SP Sepharose, Superdex 200) and unpurified in cell medium (SN); also called FLAGhuAPRIL purified; FLAGhuAPRIL SN
**Q.** Does B1 bind [1]?
**A.** Result: binds

B2: truncated human APRIL ligand polypeptide encoded by amino acid residues 105-250 of SEQ ID NO: 6 (ligand, not shown: small tags and cut ends)
chain: AVLTQKQKKQHSVLHLVPINATSKDDSDVTEVMWQPALRRGRGLQAQGYGVRIQDAGVYLLYSQVLFQDVTFTMGQVVSREGQGRQETLFRCIRSMPSHPDRAYNSCYSAGVFHLHQGDILSVIIPRARAKLNLSPHGTFLGFVKL
notes: also called longer truncate of human APRIL ligand polypeptide
**Q.** Does B2 bind [2]?
**A.** Result: binds
